Patent publication US20240368285A1 (HEFEI TG IMMUNOPHARMA, published 2024)
Where two headings read alike, the source gives them in different places.

Columns and labels:
MICA002α3-Fc [1] = target: T1, MICA002α3-Fc (human); experiment: ELISA on coated MICA*002 α3-Fc (1 µg/ml), HRP anti-human Fab secondary, OD450
T1 construct: Produced in the Applicant's laboratory; also called MICA*002-Fc; domain α3 of MICA-002 Fc fusion protein
Protocol: (§1) After the antibodies were added, signal intensity was used for judging the binding characteristics of the antibodies and MICA and MICB.
(§2) The fusion proteins (produced in the Applicant's laboratory; an amino acid sequence of MICA002α3-Fc is as set forth in SEQ ID NO: 22; an amino acid sequence of MICA005α3-Fc is as set forth in SEQ ID NO: 24; an amino acid sequence of MICA008α3-Fc is as set forth in SEQ ID NO: 25; an amino acid sequence of MICA004α3-Fc is as set forth in SEQ ID NO: 23; an amino acid sequence of MICB001α3-Fc is as set forth in SEQ ID NO: 26; and an amino acid sequence of MICB005α3-Fc is as set forth in SEQ ID NO: 27) were diluted to a concentration of 1 μg/ml with PBS and then added into a 96-well plate in a volume of 100 μl/well. The plate was placed at 4° C. overnight. The PBS in the 96-well plate was removed by sucking. After the plate was washed with PBST (that is, PBS having a pH value of 7.2 included 0.1 volume % of Tween 20) for 6 times, PBS containing 10% of BSA was added in a volume of 200 μl/well. The plate was incubated at 37° C. for 2 hours for blocking. The blocking solution was removed. […]

MICA004α3-Fc [2] = target: T2, MICA004α3-Fc (human); experiment: ELISA on coated MICA*004 α3-Fc (1 µg/ml), HRP anti-human Fab secondary, OD450
T2 construct: also called MICA*004-Fc; domain α3 of MICA-004 Fc fusion protein
Protocol: as §1, §2

MICB005α3-Fc = target: T3, MICB005α3-Fc; experiment: ELISA on coated MICB*005 α3-Fc (1 µg/ml), HRP anti-human Fab secondary, OD450
T3 construct: also called MICB*005-Fc; domain α3 of MICB-005 Fc fusion protein
Protocol: as §1, §2

MICA002α3-Fc [3] = target: T1, MICA002α3-Fc; experiment: ELISA on coated MICA*002 α3-Fc (1 µg/ml), HRP anti-human Fab secondary, OD450; remark: listed apart in the source
MICA004α3-Fc [4] = target: T2, MICA004α3-Fc; experiment: ELISA on coated MICA*004 α3-Fc (1 µg/ml), HRP anti-human Fab secondary, OD450; remark: listed apart in the source
MICB001α3-Fc = target: T4, MICB001α3-Fc; experiment: ELISA on coated MICB*001 α3-Fc (1 µg/ml), HRP anti-human Fab secondary, OD450
T4 construct: also called MICB*001-Fc; domain α3 of MICB-001 Fc fusion protein

[5] = target: T5, MICA on human tumor cells (A-375, A549, HCT-15, MDA-MB-231) (human, UniProt Q29983 24-383); experiment: flow cytometry on A-375 cells, Alexa-647 goat anti-human secondary, average fluorescence intensity
T5 construct: whole, on cells
T5 sequence (looked up): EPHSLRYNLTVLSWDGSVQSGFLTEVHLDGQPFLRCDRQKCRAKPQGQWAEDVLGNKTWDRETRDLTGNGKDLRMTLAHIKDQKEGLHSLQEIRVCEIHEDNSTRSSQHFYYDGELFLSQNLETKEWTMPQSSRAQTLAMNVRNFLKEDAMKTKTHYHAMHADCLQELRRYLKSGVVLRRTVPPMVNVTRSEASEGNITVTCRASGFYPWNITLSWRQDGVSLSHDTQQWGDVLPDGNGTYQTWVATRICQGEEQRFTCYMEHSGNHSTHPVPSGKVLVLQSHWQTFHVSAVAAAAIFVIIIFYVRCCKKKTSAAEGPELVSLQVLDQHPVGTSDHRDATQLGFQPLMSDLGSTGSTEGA
Protocol: (1) Tumor cells were diluted to a density of 2×10⁶/mL with PBS and then added into a 1.5 ml EP tube in a volume of 100 l/tube. 10 l/tube of goat serum was added into the EP tube; and blocking was conducted at 4° C. for 30 min. Antibody h5A1 (having a heavy chain sequence as set forth in SEQ ID NO: 11 and a light chain sequence as set forth in SEQ ID NO: 12), antibody h5A1002 (having a heavy chain sequence as set forth in SEQ ID NO: 13 and a light chain sequence as set forth in SEQ ID NO: 14), and control IgG1 (purchased from Biointron) were gradient-diluted (at a highest working concentration of 50 μg/ml, 10 gradients, diluted by 3 times for each gradient) and added. The tube was incubated at 4° C. for 30 min. 1 mL of PBS was added into the EP tube, and centrifugation was conducted 4° C. at a rate of 3,500 rpm for 5 min. The supernatant was removed. The EP tube was washed once with the PBS. The supernatant was removed after centrifugation. The cells were resuspended with PBS in a volume of 100 l/tube. An Alexa-647 labeled goat anti-human secondary antibody (purchased from Jackson lab) was added into the tube in a volume of 1 l/tube; and the plate was incubated in the dark at 4° C. for 30 min. The tube was washed twice with PBS, and the supernatant was removed after centrifugation. […]

T2 sequence (chain, as listed by the source limits assumed): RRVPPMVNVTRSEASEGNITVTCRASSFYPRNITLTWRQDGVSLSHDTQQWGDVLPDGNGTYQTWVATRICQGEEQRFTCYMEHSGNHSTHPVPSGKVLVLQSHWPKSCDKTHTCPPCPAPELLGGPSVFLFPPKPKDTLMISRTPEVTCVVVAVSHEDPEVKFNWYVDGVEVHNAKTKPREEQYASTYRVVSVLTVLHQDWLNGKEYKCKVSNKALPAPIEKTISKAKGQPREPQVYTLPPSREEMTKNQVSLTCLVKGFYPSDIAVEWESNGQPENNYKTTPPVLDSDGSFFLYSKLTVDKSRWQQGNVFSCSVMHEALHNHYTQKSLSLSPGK
T1 sequence (chain, as listed by the source limits assumed): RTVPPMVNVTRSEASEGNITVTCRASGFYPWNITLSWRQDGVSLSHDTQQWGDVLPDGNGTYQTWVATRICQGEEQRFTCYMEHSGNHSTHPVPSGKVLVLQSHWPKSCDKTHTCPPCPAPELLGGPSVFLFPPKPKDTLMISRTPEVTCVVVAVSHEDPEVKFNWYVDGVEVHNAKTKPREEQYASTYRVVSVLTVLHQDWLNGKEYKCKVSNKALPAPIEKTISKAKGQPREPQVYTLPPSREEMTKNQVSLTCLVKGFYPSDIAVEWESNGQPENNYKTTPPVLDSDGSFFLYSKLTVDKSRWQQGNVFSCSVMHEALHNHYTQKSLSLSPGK
T3 sequence (chain, as listed by the source limits assumed): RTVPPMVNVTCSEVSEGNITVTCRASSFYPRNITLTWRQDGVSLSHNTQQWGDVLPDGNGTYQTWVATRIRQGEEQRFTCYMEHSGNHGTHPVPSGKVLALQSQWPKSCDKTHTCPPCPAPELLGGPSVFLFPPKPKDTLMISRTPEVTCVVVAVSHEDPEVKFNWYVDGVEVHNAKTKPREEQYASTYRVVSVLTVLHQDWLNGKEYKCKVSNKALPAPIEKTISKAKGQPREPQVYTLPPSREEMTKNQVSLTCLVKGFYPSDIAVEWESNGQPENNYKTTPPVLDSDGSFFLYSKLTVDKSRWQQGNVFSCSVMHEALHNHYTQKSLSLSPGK
T4 sequence (chain, as listed by the source limits assumed): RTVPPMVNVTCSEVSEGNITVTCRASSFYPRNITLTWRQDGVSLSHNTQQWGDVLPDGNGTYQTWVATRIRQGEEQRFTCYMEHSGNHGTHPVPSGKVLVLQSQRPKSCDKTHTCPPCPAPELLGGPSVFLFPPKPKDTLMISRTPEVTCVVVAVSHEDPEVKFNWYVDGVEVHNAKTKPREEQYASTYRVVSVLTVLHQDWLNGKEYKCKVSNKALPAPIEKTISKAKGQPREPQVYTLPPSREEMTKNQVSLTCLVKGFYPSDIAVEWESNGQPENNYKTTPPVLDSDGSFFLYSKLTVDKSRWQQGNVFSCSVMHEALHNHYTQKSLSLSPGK

EC50 (read off the curve) (MICA002α3-Fc [1]): ~0.06 µg/mL
EC50 (read off the curve) (MICA004α3-Fc [2]): ~0.07 µg/mL
EC50 (read off the curve) (MICB005α3-Fc): ~0.05 µg/mL
EC50 (read off the curve) (MICA002α3-Fc [3]): ~0.04 µg/mL
EC50 (read off the curve) (MICA004α3-Fc [4]): ~0.04 µg/mL
EC50 (read off the curve) (MICB001α3-Fc): ~0.03 µg/mL
EC50 (read off the curve) [5]: ~2 µg/mL
B1: affinity maturation antibody h5A1002 (antibody, V domains shown)
VH: QVQLQESGPGLVKPSETLSLTCTVSGFSLTTYGGHWIRQPPGKGLEWIGMIWTDGWTDYNAAFISRVTISVDTSKNQFSLKLSSVTAADTAVYYCARKGHGYYYAMDYWGQGTLVTVSS
VL: EIVLTQSPGTLSLSPGERATLSCTASSSVSSSYLHWYQQKPGQAPRLLIYSTSNLISGIPDRFSGSGSGTDFTLTISRLEPEDFAVYYCHQYHRSPFTFGQGTKLEIKR
notes: Human IgG1, kappa; also called h5A1002-hIgG1
